Measured values as given in patent publication US20030040612A1 (MOUNT SINAI SCHOOL OF MEDICINE, published 2003).

What was measured:
[1] = biological target: SNT-1 PTB domain (residues 11-140 of SEQ ID NO:1) (human) (UniProt Q8WU20); experiment: method not stated
[2] = biological target: T1, juxtamembrane region of hFGFR1 as GAL4 DNA binding domain (BD) fusion protein, wild type (called hFGFR1 (human); SEQ ID NO:2 is …); experiment: yeast two-hybrid, colony growth on His-, Leu-, Trp- medium
T1 construct: Yeast two-hybrid construct; also called wild type hFGFR1
Experimental: Mutagenesis and Yeast Two-Hybrid Binding Assays: The yeast two-hybrid binding studies of the SNT-1 PTB domain binding to hFGFR1 or tyrosine-phosphorylated TRK were performed as described previously [Xu et al., J. Biol. Chem. 273:17987-17990 (1998)]. Briefly, SNT-1 cDNA fragments were cloned into the pACT2 expression vector (Clontech) for expression as GAL4 DNA activation domain (AD) fusion proteins followed by C-terminal AU1-epitope tags. The juxtamembrane region of hFGFR1 was cloned into the pAS2-1 expression vector (Clontech) for expression as a GAL4 DNA binding domain (BD) fusion protein. This plasmid served as a template for site-directed mutagenesis of hFGFR1 using the QuikChange kit (Stratagene). DNA sequencing confirmed the mutations. AD and BD plasmids were co-transformed into Saccharomyces cerevisiae strain pJ69-4A and plated onto selective media. The synthetic medium lacking the amino acids Leu and Trp (Leu⁻, Trp⁻) selected for plasmid uptake. […] Levels of protein interaction were scored by relative colony growth on these plates. […] Similarly, expression of wild type and mutant hFGFR1 was detected by immunoprecipitation with a rabbit polyclonal antibody specific for BD (Santa Cruz Biotech) and western blotting with mouse monoclonal anti-BD antibody (Santa Cruz Biotech).

[3] = biological target: T2, SNT-1 PTB domain (residues 11-140 of SEQ ID NO:1) (human, UniProt Q8WU20 11-140); experiment: isothermal titration calorimetry (ITC)
T2 construct: Recombinant from E. coli, isotope labelled for NMR; His6 tag cleaved with thrombin; Used in NMR and ITC; also called PTB Domain of SNT-1; SNT PTB domain
T2 sequence: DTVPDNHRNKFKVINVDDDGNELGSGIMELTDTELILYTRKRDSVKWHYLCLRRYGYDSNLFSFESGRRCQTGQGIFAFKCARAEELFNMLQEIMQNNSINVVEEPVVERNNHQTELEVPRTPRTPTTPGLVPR

## tyrosine-phosphorylated peptide LVIAGNPApYRS (SEQ ID NO:4)
[1]
  Kd: 1000 nM
  fold higher affinity than for the FGFR derived peptide of SEQ ID NO:3: 10 fold

B1: truncated SNT-1 PTB domain lacking the β8 region (residues 2-111), GAL4 AD fusion (other, not shown: large carriers; small tags and cut ends)
chain: GSCCSCPDKDTVPDNHRNKFKVINVDDDGNELGSGIMELTDTELILYTRKRDSVKWHYLCLRRYGYDSNLFSFESGRRCQTGQGIFAFKCARAEELFNMLQEIMQNNSIN
notes: Yeast two-hybrid construct; also called SNT-1 PTB domain protein lacking the β8 strand
[2]
  binding result: no binding

B2: hFGFR1 peptide, 22-residue peptide derived from the juxtamembrane region of hFGFR1 (residues 409-430 of SEQ ID NO:2), HSQMAVHKLAKSIPLRRQVTVS (SEQ ID NO:3) (peptide)
peptide: HSQMAVHKLAKSIPLRRQVTVS
notes: Synthetic peptide, not phosphorylated; also called FGFR peptide; FGF receptor peptide
[3]
  Kd: ~10 µM
